Key:
[1] = target: RSV F DS-Cav1 (human RSV subtype A (strain A2)) (UniProt P03420); assay: ELISA after 1 week at 4 °C; further: unit not given here
[2] = target: RSVF dFP; assay: ELISA after 1 week at 4 °C; further: unit not given here
[3] = target: sc9-10 Cav1only 100-360; assay: ELISA after 1 week at 4 °C
[4] = target: sc9-10 Cav1only 98-360; assay: ELISA after 1 week at 4 °C
[5] = target: sc9-10 Cav1only 99-360; assay: ELISA after 1 week at 4 °C
[6] = target: RSV F DS-Cav1 (human RSV subtype A (strain A2)) (UniProt P03420); assay: BLI (Octet), antibody reactivity over time at 60 °C
[7] = target: sc9-10 A DS-Cav1 A149C, Y458C; assay: as above
[8] = target: sc9-10 DS-Cav1 A149C, Y458C S46G-E92D-S215P-K465Q (A2); assay: as above
[9] = target: sc9-10 DS-Cav1 A149C, Y458C S46G-N67I-E92D-S215P-K465Q (A2); assay: as above
[10] = target: sc9-10 DS-Cav1 A149C, Y458C S46G-S215P-K465Q (A2); assay: as above
[11] = target: sc9-10 DS-Cav1 N183GC, N428C S46G-N67I-E92D-S215P-K465Q (A2); assay: as above
[12] = target: sc9-10 DS-Cav1 N183GC,N428C; assay: as above
[13] = target: RSVF Cav1only; assay: ELISA after 1 week at 4 °C
[14] = target: sc9-10 A149C Y458C Long CAV1only; assay: ELISA after 1 week at 4 °C
[15] = target: sc9-10 Cav1only 100-361; assay: ELISA after 1 week at 4 °C
[16] = target: sc9-10 Cav1only 100-362; assay: ELISA after 1 week at 4 °C
[17] = target: sc9-10 Cav1only 146-458; assay: ELISA after 1 week at 4 °C
[18] = target: sc9-10 Cav1only 369-455; assay: ELISA after 1 week at 4 °C
[19] = target: sc9-10 Cav1only 98-361; assay: ELISA after 1 week at 4 °C
[20] = target: sc9-10 Cav1only 98-362; assay: ELISA after 1 week at 4 °C
[21] = target: sc9-10 Cav1only 99-361; assay: ELISA after 1 week at 4 °C
[22] = target: sc9-10 Cav1only 99-362; assay: ELISA after 1 week at 4 °C
[23] = target: sc9-10 Cav1only; assay: ELISA after 1 week at 4 °C
[24] = target: sc9-10 N183GC N428C Long CAV1only; assay: ELISA after 1 week at 4 °C
[25] = target: RSV F DS-Cav1 (human RSV subtype A (strain A2)) (UniProt P03420); assay: BLI (Octet), F on Ni-NTA tips, Fab in solution
[26] = target: RSV F sc9 DS-Cav1 (human RSV subtype A (strain A2)); assay: BLI (Octet), F on Ni-NTA tips, Fab in solution
[27] = target: RSV F sc9-10 DS-Cav1 (human RSV subtype A (strain A2)); assay: BLI (Octet), F on Ni-NTA tips, Fab in solution
[28] = target: RSV F sc9-9 DS-Cav1 (human RSV subtype A (strain A2)) (UniProt P03420); assay: BLI (Octet), F on Ni-NTA tips, Fab in solution
[29] = target: sc10 DS-Cav1; assay: BLI (Octet), F on Ni-NTA tips, Fab in solution
[30] = target: sc11 DS-Cav1; assay: BLI (Octet), F on Ni-NTA tips, Fab in solution
[31] = target: sc8 DS-Cav1; assay: BLI (Octet), F on Ni-NTA tips, Fab in solution
[32] = target: sc9 DS-Cav1-105Q; assay: BLI (Octet), F on Ni-NTA tips, Fab in solution
[33] = target: sc9-10 A DS-Cav1 A149C, Y458C; assay: BLI (Octet), F on Ni-NTA tips, Fab in solution
[34] = target: sc9-10 DS-Cav1 A149C, Y458C S46G-E92D-S215P-K465Q (A2); assay: BLI (Octet), F on Ni-NTA tips, Fab in solution
[35] = target: sc9-10 DS-Cav1 A149C, Y458C S46G-N67I-E92D-S215P-K465Q (A2); assay: BLI (Octet), F on Ni-NTA tips, Fab in solution
[36] = target: sc9-10 DS-Cav1 A149C, Y458C S46G-S215P-K465Q (A2); assay: BLI (Octet), F on Ni-NTA tips, Fab in solution
[37] = target: sc9-10 DS-Cav1 N183GC, N428C S46G-N67I-E92D-S215P-K465Q (A2); assay: BLI (Octet), F on Ni-NTA tips, Fab in solution
[38] = target: sc9-10 DS-Cav1 N183GC,N428C; assay: BLI (Octet), F on Ni-NTA tips, Fab in solution
[39] = target: sc9-10 DS-Cav1 Q98C, Q361C L95M-I221M-R429K (B18537); assay: BLI (Octet), F on Ni-NTA tips, Fab in solution
[40] = target: sc9-10 DS-Cav1 Q98C, Q361C S46G-E92D-L95M-S215P-I217P-I221M-R429K-K465Q (Long (VR26)); assay: BLI (Octet), F on Ni-NTA tips, Fab in solution
[41] = target: sc9-19 DS-Cav1; assay: BLI (Octet), F on Ni-NTA tips, Fab in solution
[42] = target: sc9-24 DS-Cav1; assay: BLI (Octet), F on Ni-NTA tips, Fab in solution
[43] = target: bRSV F 391-2 DS-Cav1 (bovine RSV, strain 391-2) (UniProt P22167); assay: Fab binding to purified bRSV F trimer (Octet BLI as in Example 1)
[44] = target: bRSV F 391-2 sc9 DS-Cav1 Q98C Q361C (bovine RSV, strain 391-2) (UniProt P22167); assay: as above
[45] = target: bRSV F ATue51908 DS-Cav1 (bovine RSV, strain ATue51908) (UniProt P22167); assay: as above
[46] = target: bRSV F ATue51908 sc9-10 DS-Cav1 A149C Y458C (bovine RSV, strain ATue51908 (NP_048055.1)); assay: as above
[47] = target: bRSV F RB94 DS-Cav1 (bovine RSV, strain RB94) (UniProt P23728); assay: as above
[48] = target: bRSV F strain 391-2 sc9-10, DS-Cav1, Q98C-Q361C (bovine RSV, strain 391-2); assay: as above

Work on D25 antibody yielded an ELISA signal (antigenicity) [1] of 2.13, an ELISA signal (antigenicity) [2] of 0.902 and an ELISA signal (antigenicity) [3] of 1.76. It also gave an ELISA signal (antigenicity) [4] of 1.14, an ELISA signal (antigenicity) [5] of 1.4 and a T1/2 of D25 reactivity at 60 °C [6] of 3.2 h. The T1/2 of D25 reactivity at 60 °C [7] was 16.5 h, the T1/2 of D25 reactivity at 60 °C [8] was 26.7 h and the T1/2 of D25 reactivity at 60 °C [9] was 26.4 h. For the same substance, the T1/2 of D25 reactivity at 60 °C [10] was 23.4 h, the T1/2 of D25 reactivity at 60 °C [11] was 23.3 h and the T1/2 of D25 reactivity at 60 °C [12] was 42.4 h.

MPE8 (antibody) gave an ELISA signal (antigenicity) [1] of 2.16, an ELISA signal (antigenicity) [13] of 3.08 and an ELISA signal (antigenicity) [2] of 2.77. It also gave an ELISA signal (antigenicity) [14] of 2.5, an ELISA signal (antigenicity) [3] of 1.28 and an ELISA signal (antigenicity) [15] of 0.786. The ELISA signal (antigenicity) [16] was 0.298, the ELISA signal (antigenicity) [17] was 1.85 and the ELISA signal (antigenicity) [18] was 2.32. It also gave an ELISA signal (antigenicity) [4] of 0.734, an ELISA signal (antigenicity) [19] of 1.4 and an ELISA signal (antigenicity) [20] of 0.845. For the same substance, the ELISA signal (antigenicity) [5] was 0.625, the ELISA signal (antigenicity) [21] was 2.66 and the ELISA signal (antigenicity) [22] was 1.28. For the same substance, the ELISA signal (antigenicity) [23] was 3.54, the ELISA signal (antigenicity) [24] was 0.228 and the T1/2 of MPE8 reactivity at 60 °C [6] was 2 h. The T1/2 of MPE8 reactivity at 60 °C [7] was 14.4 h, the T1/2 of MPE8 reactivity at 60 °C [8] was 12.6 h and the T1/2 of MPE8 reactivity at 60 °C [9] was 12.7 h. The T1/2 of MPE8 reactivity at 60 °C [10] was 11.2 h, the T1/2 of MPE8 reactivity at 60 °C [11] was 35.1 h and the T1/2 of MPE8 reactivity at 60 °C [12] was 48.3 h.

In the case of MPE8 Fab, the Kd [25] is reported as 0.5 nM, the Kd [26] is reported as 0.8 nM and the Kd [27] is reported as 0.8 nM. It also gave a Kd [28] of less than 0.01 nM, a Kd [29] of 0.8 nM and a Kd [30] of 1.6 nM. The Kd [31] was 0.5 nM, the Kd [32] was 0.8 nM and the Kd [33] was 0.1 nM. The Kd [34] was 0.2 nM, the Kd [35] was 0.2 nM and the Kd [36] was 0.4 nM. For the same substance, the Kd [37] was 0.2 nM, the Kd [38] was 0.1 nM and the Kd [39] was 0.2 nM. For the same substance, the Kd [40] was 0.2 nM, the Kd [41] was 1 nM and the Kd [42] was 0.8 nM. It also gave a Kd [43] of 0.2 nM, a Kd [44] of 0.4 nM and a Kd [45] of 0.2 nM. For the same substance, the Kd [46] was 0.5 nM, the Kd [47] was 0.2 nM and the Kd [48] was 0.8 nM.

Mota (antibody) was tested, and the ELISA signal (antigenicity) [1] was 1.72, the ELISA signal (antigenicity) [13] was 3.35 and the ELISA signal (antigenicity) [2] was 3.42. It also gave an ELISA signal (antigenicity) [14] of 2.55, an ELISA signal (antigenicity) [3] of 1.61 and an ELISA signal (antigenicity) [15] of 2.8. For the same substance, the ELISA signal (antigenicity) [16] was 1.53, the ELISA signal (antigenicity) [17] was 1.95 and the ELISA signal (antigenicity) [18] was 2.5. For the same substance, the ELISA signal (antigenicity) [4] was 1.04, the ELISA signal (antigenicity) [19] was 2.24 and the ELISA signal (antigenicity) [20] was 0.828. The ELISA signal (antigenicity) [5] was 1.11, the ELISA signal (antigenicity) [21] was 2.71 and the ELISA signal (antigenicity) [22] was 1.38. It also gave an ELISA signal (antigenicity) [23] of 3.59 and an ELISA signal (antigenicity) [24] of 2.07.

From patent US20190112340A1
